These are literature values, as cited in paper PMC6705211.

Where two headings read alike, the source gives them in different places.

For series [1], the target named is H3K9me3 (UniProt P68431).
Series [2] has as its target H3K9me3 (UniProt P68431). This is another data set of the same source.
In series [3] the target is H3K9me3 (UniProt P68431). This is another data set of the same source.
The target in series [4] is H3K9me3 (UniProt P68431). The source holds these as a separate data set.

Sequence of HP1a chromodomain (P05205 24-82): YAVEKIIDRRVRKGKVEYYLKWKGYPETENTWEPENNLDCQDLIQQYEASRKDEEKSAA
Sequence of HP1α chromodomain (P45973 20-78): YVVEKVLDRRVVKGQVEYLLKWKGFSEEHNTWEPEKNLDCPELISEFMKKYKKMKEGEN
Sequence of HP1β (P83916 whole entry): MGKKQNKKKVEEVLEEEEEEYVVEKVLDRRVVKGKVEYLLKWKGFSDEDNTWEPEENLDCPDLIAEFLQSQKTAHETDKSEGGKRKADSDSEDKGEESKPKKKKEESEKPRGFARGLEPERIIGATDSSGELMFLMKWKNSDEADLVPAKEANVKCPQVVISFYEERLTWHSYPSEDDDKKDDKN
Sequence of HP1γ (Q13185 2-183): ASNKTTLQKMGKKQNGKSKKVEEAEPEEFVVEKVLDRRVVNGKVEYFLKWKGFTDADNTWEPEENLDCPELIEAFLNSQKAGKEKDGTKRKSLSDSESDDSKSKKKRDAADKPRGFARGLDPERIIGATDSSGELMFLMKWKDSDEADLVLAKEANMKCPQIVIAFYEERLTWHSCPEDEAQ

HP1α chromodomain (from UniProt P45973): the Kd with H3K9me3 [1] is 13 µM.

On to HP1a chromodomain (from UniProt P05205), for which the equilibrium dissociation constant (Kd) with H3K9me3 [2] was 4 µM.

Take HP1β (from UniProt P83916): the Kd with H3K9me3 [3] was 3 µM.

Consider HP1γ (from UniProt Q13185), for which the Kd with H3K9me3 [4] is 7 µM.
